Results from patent publication US10100129B2, “Antibodies against CD73 and uses thereof” (BRISTOL-MYERS SQUIBB COMPANY, priority 2014, dated 2018).
Numbering of substitutions follows the chain as printed. Names may count otherwise.

Assays:
CD73 on Calu6 cells = target: T1, CD73 on Calu6 cells (Homo sapiens, UniProt P21589); test: Dual cell line HTRF cAMP assay (Calu-6 and HEK293/A2AR cells); assay type: cell-based
T1 construct: Calu6 (CD73 endogenous expressors; human pulmonary adenocarcinoma cell line); endogenous in cells; host or cells: Calu6, NCI-H292, SK-MEL-24, SNU-C1, NCI-H1437, H2228, HCC15, H2030 and further human tumour lines
T1 sequence (P21589 27-549): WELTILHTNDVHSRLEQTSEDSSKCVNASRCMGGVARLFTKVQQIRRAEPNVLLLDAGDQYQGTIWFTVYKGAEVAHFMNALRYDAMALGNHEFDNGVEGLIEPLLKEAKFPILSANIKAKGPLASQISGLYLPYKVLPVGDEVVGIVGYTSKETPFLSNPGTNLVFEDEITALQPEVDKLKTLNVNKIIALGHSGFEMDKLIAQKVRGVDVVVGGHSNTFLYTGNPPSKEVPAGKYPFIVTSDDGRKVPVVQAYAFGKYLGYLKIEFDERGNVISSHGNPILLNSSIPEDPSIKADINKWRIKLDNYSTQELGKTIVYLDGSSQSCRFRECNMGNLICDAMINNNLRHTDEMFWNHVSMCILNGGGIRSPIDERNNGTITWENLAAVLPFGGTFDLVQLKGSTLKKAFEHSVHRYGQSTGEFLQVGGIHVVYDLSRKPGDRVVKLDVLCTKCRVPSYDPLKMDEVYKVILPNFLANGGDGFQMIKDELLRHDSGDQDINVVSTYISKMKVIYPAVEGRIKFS
Protocol: Inhibition of CD73 Enzymatic Activity in a Dual Cell Line cAMP Assay Homogenous Time Resolved Fluorescence (HTRF) cAMP Assay
CD73 antibodies were serial diluted with PBS buffer containing 0.2% BSA, and plated 5 μl/well in 384 well white bottom proxiplate (PerkinElmer, Waltham, Mass.). Calu-6 cells were harvested and resuspend in PBS containing 0.2% BSA, then 5 μl of cells (300 cells/well) were added to the plate. The cells were incubated with antibodies for 10 minutes at 37° C. […] The cells were further incubated with AMP for 30 minutes at 37° C. During this time, HEK293/A2AR cells were harvested and diluted to 0.4 million/ml in PBS containing 0.2% BSA. […] HRTF assays were performed using the homogenous time-resolved fluorescence (HTRF) HiRange cAMP detection kit (Cisbio, Bedford, Mass.) by adding 10 μl/well cAMP-conjugated d2 and 10 μl/well europium cryptate conjugated anti-cAMP antibody in lysis buffer according to the manufacturer's instructions. Plates were incubated at room temperature for 60 minutes and Fluorescence Resonance Energy Transfer (FRET) signals (665 and 615 nM) were read using an EnVision plate reader (PerkinElmer, Waltham, Mass.). The FRET signal was calculated as the ratio of signal from the 665 nm (acceptor) and 615 nm (donor) channels and multiplied by 10.000. IC50 and Ymax were measured. […]

cyno FcγRs = test: SPR binding to cyno FcγRs; design: species or system cynomolgus; conditions: read-out: binding affinity to cyno FcγRs
human FcγRs = test: SPR binding profile to human FcγRs (panel)
Protocol: Binding of the constructs to human FcγRs was measured via SPR. hCD64 and hCD32a-H131 binding data for IgG1.1 and IgG2 molecules were consistent with expected values for the different Fcs. IgG1.1f is the most inert Fc.
(§1) The binding of antibodies to Fc gamma receptors (FcγRs or FcgRs) was studied using biosensor technologies including Biacore surface plasmon resonance (SPR) and Fortebio Biolayer Interferometry (BLI). SPR studies were performed on a Biacore T100 instrument (GE Healthcare) at 25° C. The Fab fragment from a murine anti-6×His antibody was immobilized on a CM5 sensor chip using EDC/NHS to a density of ˜3000 RU. Various his-tagged FcgRs (7 ug/ml) were captured via the C-terminal his-tag using a contact time of 30 s at 10 ul/min, and the binding of 1.0 μM antibody was evaluated in a running buffer of 10 mM NaPO4, 130 mM NaCl, 0.05% p20 (PBS-T) pH 7.1. FcgRs used for these experiments included CD64 (FcgRI), CD32a-H131 (FcgRIIa-H131), CD32a-R131 (FcgRIIa-R131), CD32b (FcgRIIb), CD16a-V158 (FcgRIIIa-V158), CD16b-NA1 (FcgRIIIb-NA1), and CD16B-NA2 (FcgRIIIb-NA2). BLI experiments were performed on a Fortebio Octet RED instrument (Pall, Fortebio) at 25° C. in 10 mM NaPO4, 130 mM NaCl, 0.05% p20 (PBS-T) pH 7.1. Antibodies were captured out of undiluted expression supernatants on protein A coated sensors, followed by the binding of 1 μM hCD32a-H131, hCD32a-R131, hCD32b, hCD16a-V158, or 0.1 μM hCD64 analytes.
This engineering strategy was further explored by producing other antibodies formatted with IgG2.3G1-AY, IgG2.3G1-AY-S267E (IgG2.3G1-AY-V27), as well as IgG2-B-form variants (IgG2.5G1-AY and IgG2.5G1-AY-V27), and other hybrid antibodies containing different combinations of IgG1 and IgG2 constant domains, and testing the binding of these antibodies to anti-his Fab captured his-tagged FcgRs using Biacore SPR technology.

[1] = SEC-MALS oligomeric state of CD73 mAbs; assay type: physicochemical
Protocol: The oligomeric state of CD73 mAbs were examined by size-exclusion chromatography coupled to an in-line multi-angle light scattering detector (SEC-MALS). Isocratic separations were performed on a Shodex PROTEIN KW-803 column connected to an Prominence Shimadzu UFLC in buffer containing 200 mM K2HPO4, 150 mM NaCl, pH 6.8, containing 0.02% Na azide (0.1 μm filtered) running at 0.5 mL/min. Samples were injected onto the column using a SIL-20AC Prominence Shimadzu autosampler, and data were obtained from three online detectors connected in series: a Prominence SPD-20AD diode array UV/vis spectrophotometer followed by a Wyatt miniDAWN™ TREOS Multi-Angle Light Scattering Detector then a Wyatt Optilab T-rEX Refractive Index Detector. Data (as shown in Table 15 below) were collected and analyzed using Astra (Wyatt) and Labsolutions (Shimadzu) software.

CD73 on NCI-H292 cells = target: T2, CD73 on NCI-H292 cells (Homo sapiens, UniProt P21589); test: Flow cytometry based cross-blocking on NCI-H292 cells; assay type: binding; conditions: FITC-labeled 11F11, NCI-H292 cells
T2 construct: endogenous in cells; host or cells: NCI-H292
T2 sequence (P21589 27-549): T1 sequence (P21589 27-549)
Protocol: The antibodies were also subjected to flow cytometry based cross-blocking. The experiment was conducted as follows using one set of labeled fluorescently labeled antibody and a second set of unlabeled antibody: 100000 NCI-H292 cells were seeded per well. The plate was spun down and the cells were resuspended in 100 uL 2% FBS in PBS per well. The cells were blocked on ice for 20 min. Unlabeled antibody, as indicated, in 2% FBS in PBS was added to each well. […] 6 wells of cells were incubated without antibody, and were resuspended in 100 uL 2% FBS in PBS only (for controls). The cells were then incubated on ice for 30 min. The cells were washed twice with 2% FBS in PBS and the samples were resuspended in 140 uL 2% FBS in PBS, and analyzed on a FacsCalibur flow cytometer (Becton Dickinson).

CD73 = target: T3, CD73 (Homo sapiens, UniProt P21589); test: CD73 internalization at 1, 4 or 21 hours by CD73.4 with heavy chain constant region variants (FIG. 31); assay type: cell-based; design: endogenous in cells; conditions: CD73.4 variable regions with the named constant region
T3 sequence (P21589 27-549): T1 sequence (P21589 27-549)
Protocol: The bars for each antibody are shown in the order of 21 hours (on the left), 4 hours (middle) and 1 hour (right).
Anti-CD73 antibodies (CD73.4) with the heavy chain constant regions shown in Table 31 were prepared and tested as described above in antibody mediated CD73 internalization assays.

[2] = system: hCD32a-H131, hCD32a-R131, hCD32b, hCD16a-V158, hCD64; test: Fortebio Octet BLI binding of protein A-captured antibodies to FcgR analytes; design: species or system human; conditions: expression supernatants
Protocol: as §1
The next set of constructs was used to engineer effector function into the otherwise effector function negative IgG2 isotype. […]

**Q.** Which IC50 (CD73 on Calu6 cells; cAMP assay) does the source give for `Nc1ncnc2c1ncn2[C@@H]1O[C@H](COP(=O)(O)CP(=O)(O)O)[C@@H](O)[C@H]1O` [APCP] here?
**A.** Its IC50 is 0.00129 µM.

**Q.** What about the Ymax (CD73 on Calu6 cells; percentage of inhibition relative to 100 nM 11F11 set to 100%) of the same molecule?
**A.** The Ymax was 97.

**Q.** Which Kd (cyno FcγRs) does the source give for “IgG2-C219S-G1.1f: effectorless IgG1/IgG2 hybrid constant region: CH1 and hinge from IgG2 (C219S), CH2 and CH3 of IgG1 (A330S/P331S); SEQ ID NO:169” here?
**A.** Its Kd is > 5 µM.

**Q.** What about the Kd (human FcγRs; read-out: binding affinity to all other FcγRs) of the same molecule?
**A.** Its Kd is < 5 µM.

B1: IgG2.5plusTHT: modified IgG2.5 constant region construct (protein)
chain: ASTKGPSVFPLAPSSRSTSESTAALGCLVKDYFPEPVTVSWNSGALTSGVHTFPAVLQSSGLYSLSSVVTVPSSNFGTQTYTCNVDHKPSNTKVDKTVERKCCVETHTCPPCPAPPVAGPSVFLFPPKPKDTLMISRTPEVTCVVVDVSHEDPEVQFNWYVDGVEVHNAKTKPREEQFNSTFRVVSVLTVVHQDWLNGKEYKCKVSNKGLPAPIEKTISKTKGQPREPQVYTLPPSREEMTKNQVSLTCLVKGFYPSDIAVEWESNGQPENNYKTTPPMLDSDGSFFLYSKLTVDKSRWQQGNVFSCSVMHEALHNHYTQKSLSLSPGK
modifications: Synthetic: IgG2.5-plusTHT
notes: modified IgG2.5 constant region construct
**Q.** For B1, which “FcgR binding properties by SPR (in words)” value (human FcγRs) is on record?
**A.** Its value is “unable to retain IgG1f-like FcgR binding properties”.

B2: IgG2.3plusGGG: modified IgG2.3 constant region construct (protein)
chain: B1 chain with S14C, C102S, T106G, H107G, T108G
modifications: Synthetic: IgG2.3-plusGGG
notes: modified IgG2.3 constant region construct
**Q.** With B2 as the molecule, how does the “FcgR binding properties by SPR (in words)” value (human FcγRs) read?
**A.** The value was “unable to retain IgG1f-like FcgR binding properties”.

B3: 7A11: human anti-CD73 monoclonal antibody, IgG1za; VH SEQ ID NO: 88, VL SEQ ID NO: 92 (antibody, V domains shown)
VH: EVQLVESGGGLVQTGRSLRLSCAASGFTFDDYAMHWVRQAPGKGLEWVSDISWNSDIIGYADSVKGRFTISRDNAKNSLYLQMNSLRAEDTALYYCAKDIYGSGSSFFDYWGQGILVTVSS
VL: DIQMTQSPSSLSASVGDRVTITCRASQYISSWLAWYQQKPEKAPKSLIYAASSLQSGVPSRFSGSGSGTDFTLTISSLQPEDFATYYCQQYHSYPPTFGQGTRLEIK
modifications: Synthetic: 7A11 VH; Synthetic: 7A11 VK1
**Q.** Which results are given for B3?
**A.** SEC % HMW [1]: 0.5%; SEC % LMW [1]: 0.5%; SEC % Monomer [1]: 98.5%; competition with 11F11 (cross-blocking) (CD73 on NCI-H292 cells): competes with 11F11

B4: IgG2.3/4: CD73.4 with IgG2 constant region with C219S/C220S (protein)
chain: ASTKGPSVFPLAPCSRSTSESTAALGCLVKDYFPEPVTVSWNSGALTSGVHTFPAVLQSSGLYSLSSVVTVPSSNFGTQTYTCNVDHKPSNTKVDKTVERKSSVECPPCPAPPVAGPSVFLFPPKPKDTLMISRTPEVTCVVVDVSHEDPEVQFNWYVDGVEVHNAKTKPREEQFNSTFRVVSVLTVVHQDWLNGKEYKCKVSNKGLPAPIEKTISKTKGQPREPQVYTLPPSREEMTKNQVSLTCLVKGFYPSDIAVEWESNGQPENNYKTTPPMLDSDGSFFLYSKLTVDKSRWQQGNVFSCSVMHEALHNHYTQKSLSLSPGK
modifications: Synthetic: IgG2.3/4
notes: CD73.4 with IgG2 constant region with C219S/C220S
**Q.** With B4 as the molecule, how does the “antibody mediated CD73 internalization (in words)” value (CD73) read?
**A.** The value was “much reduced internalization compared to IgG2.3 or IgG2.4 alone”.

B5: IgG2.3: antibody with IgG2 constant region with C219S (protein)
constant: B4 chain with S103C
modifications: left off: another chain or arm of the molecule
notes: antibody with IgG2 constant region with C219S
**Q.** For B5, which “FcgR binding profile by BLI (in words)” value [2] is on record?
**A.** The value was “appreciable binding to only CD32a-H131”.
